Data taken from the supplement of paper PMC10567573.
± gives the standard deviation.

Assay: protein stability index of a GFP-peptide fusion (GPS, HEK-293T) (PSI 1-6); higher = more stable
[1] = treatment: DMSO, c terminus: a fixed tail appended
[2] = treatment: MLN4924 1 uM, 8 h, c terminus: a fixed tail appended
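Further: 24-mer peptide tiles fused after GFP, lentivirally expressed, FACS-sorted into six equal bins by GFP/DsRed ratio, decoded by Illumina sequencing, PSI is the read-weighted mean bin number.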

Sequence | protein stability index [1] | protein stability index [2] | protein stability index (treatment: DMSO, c terminus: native) | protein stability index (treatment: MLN4924 1 uM, 8 h, c terminus: native)
QGQAAAPASGSGADSEPARHIFSF [TRIM55] | 3.76 ± 0.27 | 3.79 ± 0.3 | – | –
QHEEICLGLFTLILTEPAQAQKCY [INTS3] | 2.24 ± 0.46 | 2.32 ± 0.41 | – | –
QKVDQFDPFTVPTISFICRELDAI [PRIM1] | 2.2 ± 0.24 | 2.31 ± 0.33 | – | –
QLEKPPEKEEDHAPEFIKVRENLR [FAM107A] | 5.29 ± 0.23 | 5.32 ± 0.16 | – | –
QLENEQSQENSINPIQKEEDEGVD [SPANXN3] | 5.56 ± 0.22 | 5.67 ± 0.2 | – | –
QLHAKIDAAEEEKYDMEVRVQKTS [TNNI2] | 5.27 ± 0.23 | 5.22 ± 0.24 | – | –
QLHPPRWYSRLQACQWGGNFLAFS | 2.11 ± 0.45 | 2.26 ± 0.088 | – | –
QLRCEMEQQNQEYKILLDVKTRLE [KRT17] | 3.63 ± 0.28 | 3.83 ± 0.098 | – | –
QPRLSYAEMAEDYPRYPDIHDLDL [CLCN6] | 4.14 ± 0.27 | 4.24 ± 0.14 | – | –
QQFVIAGVLVEDSNNHHLMLEASE [ZBED1] | 3.5 ± 0.36 | 3.57 ± 0.43 | – | –
QQKQQIMAALNSQTAVQFQQYAAQ [ACBD3] | 3.21 ± 0.17 | 3.27 ± 0.16 | – | –
QQLVSFSESGSLGNSSGSDVTSLS [ISL2] | 4.79 ± 0.19 | 4.72 ± 0.37 | – | –
QQSQGWVHYMIHEPEPHILLFRRP [CKS1B] | 2.11 ± 0.35 | 1.96 ± 0.22 | – | –
QQTKLEAEKLKVQALKDRGLSIPR [LSM1] | 4.12 ± 0.16 | 4.21 ± 0.075 | – | –
QRDSKRWSRLEEFDVFSPKQDLVP [DLC1] | 3.63 ± 0.13 | 3.8 ± 0.21 | – | –
QRISCFQSTVKCLTVLQRLDVWLS [WDR41] | 2.45 ± 0.35 | 2.41 ± 0.44 | – | –
QRSVSDVASGSTPAPALCCAPYDS [IRX6] | 4.8 ± 0.34 | 4.94 ± 0.085 | – | –
QSKPLLSAFADIIHSLKESGQLWL [FADS1] | 2.8 ± 0.4 | 2.87 ± 0.68 | – | –
QTFLDERTPRLMPDKESMYYPRVQ [GDAP1] | 3.43 ± 0.32 | 3.41 ± 0.31 | – | –
QTLRQELSLPYLPSGTPELEVPKP [CHIT1] | 4.7 ± 0.15 | 4.69 ± 0.36 | – | –
QVERMREVNSRCYQPEPFACGIEH [FBXO34] | 2.53 ± 0.3 | 2.43 ± 0.34 | – | –
QVPYPPRQLLRDFQSRLPYQYLHY [P3H4] | 2.45 ± 0.072 | 2.24 ± 0.35 | – | –

Sequence | protein stability index [1] | protein stability index [2] | protein stability index (treatment: DMSO, c terminus: native) | protein stability index (treatment: MLN4924 1 uM, 8 h, c terminus: native)
QYESIAAKNLQEAEEWYKSKYADL [PRPH] | 4.76 ± 0.23 | 4.49 ± 0.21 | – | –
QYYRTIEELQNKILTATVDNANIL [KRT17] | 2.22 ± 0.2 | 2.23 ± 0.2 | – | –
RADKNDDGKLSFEEFKAYFADGVL [NECAB1] | 3.48 ± 0.3 | 3.58 ± 0.39 | – | –
RAINLLFDIARIERCNQLLRALKL [ZER1] | 1.82 ± 0.16 | 2.08 ± 0.32 | – | –
RAKGLLGTTVTFDDLMGILCKSVL [FEM1C] | 2.76 ± 0.63 | 2.54 ± 0.22 | – | –
RALARNLIFGLITCLTGVLGVGLG [SPNS1] | 2.28 ± 0.32 | 2.92 ± 0.81 | – | –
RALESELQQLRARLQGLEADCVRG [PBXIP1] | 3.47 ± 0.19 | 3.31 ± 0.13 | – | –
RASQREYEELRNSERAEVQRLEEQ [RSPH3] | 5.43 ± 0.27 | 5.3 ± 0.2 | – | –
RCNTTCGRGVKKRLVLCMELANGK [ADAMTSL2] | 3.22 ± 0.21 | 3 ± 0.13 | – | –
RDASDPLAGAALEPAGGGRSREAR [SMAD6] | 5.39 ± 0.19 | 5.44 ± 0.2 | – | –
RDLKTQNILLDKHRMVVKIGDFGI [NEK8] | 2.24 ± 0.18 | 2.24 ± 0.16 | – | –
REESQHEIKDVLVWTNDQVVHWVQ [PPFIA4] | 3.4 ± 0.37 | 3.97 ± 0.45 | – | –
RERKKNWGGQEDREPAGRWKEGRP [PBXIP1] | 4.49 ± 0.24 | 4.73 ± 0.13 | – | –
RGEVLPEEITEESLEESVGKPLYL [INTS3] | 5.17 ± 0.38 | 5.08 ± 0.35 | – | –
RGLEPGKGRHHRGRGGEPRAYFMS [CHGB] | 4.36 ± 0.092 | 4.24 ± 0.13 | – | –
RGPPPRSGGPPPKRSAPSGPVRSS [RBMX] | 4.4 ± 0.2 | 4.56 ± 0.086 | – | –
RGSRGAPPPLGPVVPVLVFPPDLV [MOSPD3] | 2.67 ± 0.05 | 2.96 ± 0.22 | – | –
RKFSRECEDQKQIKKPESFSKQIV [NEUROD6] | 4.43 ± 0.27 | 4.21 ± 0.43 | – | –
RKLRKTVNGDGSRENGNNSSDKVR [PHTF1] | 4.96 ± 0.088 | 4.99 ± 0.18 | – | –
RLFQQSCPTGLVFSNSCKCCTWN [CHIT1] | – | – | 2.37 ± 0.44 | 2.37 ± 0.28
RLHLAFKRQVPREQAQAYAERLGV [RAB40A] | 2.76 ± 0.16 | 3.12 ± 0.18 | – | –
RLHLRRTTEQHVPEVEVQVKRRRT [SNURF] | 4.75 ± 0.26 | 4.71 ± 0.35 | – | –

Sequence | protein stability index [1] | protein stability index [2] | protein stability index (treatment: DMSO, c terminus: native) | protein stability index (treatment: MLN4924 1 uM, 8 h, c terminus: native)
RLQSSFWIVDKQHVYIGSAGLDWQ [PLD5] | 2.69 ± 0.46 | 2.26 ± 0.38 | – | –
RLRHYLGSRYDARRGVSDWDLRMK [DNAAF3] | 2.19 ± 0.21 | 2.33 ± 0.33 | – | –
RNLDGTLGYLLDKETLRLHPDIFL [ZER1] | 2.13 ± 0.27 | 2.05 ± 0.17 | – | –
RPQPWLEKEIEEATKKLGFKHPVI [FUT8] | 3.643 ± 0.035 | 3.22 ± 0.37 | – | –
RQFEFYLEEMILPLMVASAQSGER [BTBD10] | 2.58 ± 0.64 | 3.2 ± 0.43 | – | –
RQQGNPGHRSIYLALKLPDGSYAL [ADAMTS4] | 2.04 ± 0.23 | 2.2 ± 0.33 | – | –
RQQVTNHGRGTEVLLEEPLPLETA [ZNF263] | 5 ± 0.28 | 5.04 ± 0.17 | – | –
RRPRTAFTQNQIEVLENVFRVNCY [HESX1] | 2.39 ± 0.15 | 2.53 ± 0.24 | – | –
RRQQAKLKELQAIAERLGCTLPQL [KCNAB2] | 2.99 ± 0.17 | 3.19 ± 0.3 | – | –
RSANGFPYREDEEGAFGEHGSQGT [MAP2] | 5.38 ± 0.25 | 5.41 ± 0.2 | – | –
RSVSDQFYRYKMPRLIAKVEGKGN [EIF5] | 3.47 ± 0.19 | 3.46 ± 0.21 | – | –
RVIEVLPRGATAAVLAPDSSNASS [SEPHS2] | 4.31 ± 0.19 | 4.42 ± 0.18 | – | –
RVLHDFGLDGYRGYSLADWVCLAY [SPACA3] | 2.2 ± 0.34 | 2.21 ± 0.18 | – | –
RVTVSRASSSRSVRTTRGKRKRVD [LMNB1] | 4.46 ± 0.2 | 4.34 ± 0.1 | – | –
RWDLSPEQIKTRTEELIVQTKQVY [NLN] | 3.44 ± 0.32 | 3.8 ± 0.088 | – | –
RWLPEKRANPCLSSSNEHAAPAAK [ELOA2] | 4.25 ± 0.18 | 4.08 ± 0.16 | – | –
SAESMVEYGTCMCLVKGIFYHCSN [SPRY1] | 2.65 ± 0.42 | 2.55 ± 0.34 | – | –
SAFSSRGSLSLSFEREPSTSDLGT [RIPK4] | 4.01 ± 0.14 | 4.13 ± 0.14 | – | –
SAPQQNGQPLRPLVPDASKQRLME [PDLIM7] | 4.73 ± 0.34 | 4.89 ± 0.33 | – | –
SATCTTGVMSAYAMCVRYDGVEVD [ADAMTSL2] | 2.72 ± 0.32 | 2.63 ± 0.17 | – | –
SCAGGRLFQQSCPTGLVFSNSCKC [CHIT1] | 2.98 ± 0.17 | 3.05 ± 0.24 | – | –
